This note sets out measurements from patent publication US8445633B2, “Peptide having bindability with adiponectin, analysis method utilizing same peptide, and analysis device utilizing same peptide” (Sharp Kabushiki Kaisha, priority 2010, dated 2013).

For test [1], the target named is T1, adiponectin (Homo sapiens, UniProt Q15848).
T1 construct: purchased R&D Systems
T1 sequence (Q15848 19-244): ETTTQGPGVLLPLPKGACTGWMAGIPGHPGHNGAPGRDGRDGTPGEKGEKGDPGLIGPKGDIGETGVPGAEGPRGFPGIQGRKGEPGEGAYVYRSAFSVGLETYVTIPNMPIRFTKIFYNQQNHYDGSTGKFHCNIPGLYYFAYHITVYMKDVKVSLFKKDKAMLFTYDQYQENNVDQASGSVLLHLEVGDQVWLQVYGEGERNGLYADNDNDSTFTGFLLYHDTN
As to the kind of experiment: Bond between adiponectin immobilized onto a microplate and biotin-tagged peptide, enzyme immunoassay (HRP-tagged streptavidin, TMB). As to conditions: Example 2, FIG. 4; for absorbance at 450 nm: 1 mM peptide with C-terminal lysine tagged with biotin, compared with peptide of SEQ ID NO. 17 (Comparative Example 2); for bindability with adiponectin: conclusion from absorbance. Type of test: binding. As to the method: As described below, the bond between adiponectin immobilized onto a microplate and each of peptides tagged with biotin (biotin-tagged peptide) was measured by using enzyme immunoassay.
First, peptides were prepared in such a manner that lysine was added to the C-terminal of each of peptides having amino-acid sequences represented by SEQ ID NOs: 14 and 15. Then, the amino group of a lysine side chain of each of the peptides thus prepared was tagged with biotin so that biotin-tagged peptides were prepared.
5 μg/mL adiponectin (R&D Systems) prepared with PBS was dispensed to wells of a 96-well microplate in an amount of 100 μL per well. Then, the peptides were incubated for 1 hour at 37° C. Adiponectin was thus immobilized in the wells. In order to inhibit nonspecific binding, a blocking solution (Protein-Free Blocking Buffer, PIERCE) was then added to the wells in an amount of 300 μL per well. Then, the peptides were incubated for 2 hours at room temperature. Then, the wells were washed three times with PBST (PBS containing 0.1% (v/v) Tween 20). Then, 1 mM biotin-tagged peptide was added to the wells in an amount of 100 μL per well. Then, the peptides were incubated for 1 hour at room temperature. Then, the wells were washed with PBST again.
Then, HRP-tagged streptavidin (R&D Systems) diluted with 200 parts of the blocking solution (Protein-Free Blocking Buffer, PIERCE) was added to the well in an amount of 100 μL per well. Then, the streptavidin was incubated for 1 hour at room temperature. Then, the wells were washed with PBST. Then, TMB (tetramethylbenzidine) was added to the wells in an amount of 100 μL per well so that they react with each other for 20 minutes. Then, the reaction was stopped by adding 1 M of HCL to the wells in an amount of 100 μL per well. Then, an absorbance at 450 nm was measured by use of a microplate reader (Bio-Rad).
The bond between a peptide having the amino-acid sequence represented by SEQ ID NO. 17 and adiponectin as in Example 2.

Test [2] has as its target T1, adiponectin. Put plainly: Bond between peptide spot-synthesized on cellulose membrane and adiponectin, sandwich enzyme immunoassay (HRP-tagged anti-adiponectin antibody, Amplex Red fluorescence). The test is classed as binding. As to conditions: Example 3, FIG. 5; for bindability with adiponectin: conclusion from fluorescent intensity; for fluorescent intensity in the synthesis spot: peptides with conservative substitution compared with parent peptides SEQ ID NOs: 8 and 9. An excerpt:
In order to identify an amino-acid sequence having bindability with adiponectin, a peptide was synthesized on a cellulose membrane by use of a peptide synthesis device (Model MultiPep RS (Intavis AG)) utilizing a Fmoc-based peptide spot synthesis.
Immobilized on the cellulose membrane was polyethylene glycol having a terminal modified with an amino group. An Fmoc amino acid was bound with the amino group by using DIC (diisopropylcarbodiimide)/HOBt (hydroxybenzotriazole). After that, Fmoc was removed.
The cycle of the removal of Fmoc and the subsequent binding was repeated to synthesis a peptide. Then, N-terminals and side chains of all the peptides were deprotected. Thereby, peptides consisting of amino-acid sequences represented by SEQ. ID NOs: 1 to 15 were obtained.
The sandwich technique which is one of enzyme immunoassays was performed to measure the bond between each of the peptides thus synthesized and adiponectin.
First, a cellulose membrane was soaked in ethanol. Then, the cellulose membrane was continuously washed with phosphate buffered saline (PBS) (pH 7.4) so that ethanol contained in the cellulose membrane was replaced with PBS. In order that nonspecific binding is inhibited, the cellulose membrane was incubated overnight in a blocking solution (PBS containing 1% milk powder).
Then, the cellulose membrane was incubated for 1 hour in a blocking solution (PBS containing 1% milk powder) which contains 0.25 μg/mL human adiponectin (R&D Systems). Then, the cellulose membrane was washed with PBST (PBS containing 0.1% (v/v) Tween 20). Then, the cellulose membrane was incubated for 1 hour in a blocking solution containing […] anti-human adiponectin antibody (R&D Systems) which is tagged with HRP, and then washed with PBST five times.
After that, 100 μM fluorescent substrate (Amplex Red (Invitrogen)) containing 1 mM hydrogen peroxide was added to the cellulose membrane, and then they react with each other for 10 minutes. A fluorescent intensity in a synthesis spot was measured in such a manner that an […] wavelength of 595 nm of fluorescence from the fluorescent substrate was measured by a fluorescence imager (GE Healthcare) by exciting, with light of 540 nm, the fluorescent substrate in the synthesis spot. A bond strength of the peptide was worked out from the fluorescent intensity in the synthesis spot.
A peptide consist of the amino-acid sequence represented by SEQ ID NO. 16 was synthesized as in Example 1. Then, the bond between the synthesized peptide and adiponectin was measured as in Example 1.
Then, the bond between each of the synthesized peptides and adiponectin was measured as in Example 1.

For the substance “14 (ITPIHWVK; Adiponectin binding peptide) [compound 14]”, in the test with adiponectin [1], the “absorbance at 450 nm” value was “significantly higher in absorbance” and the bindability with adiponectin result is given as “had the bindability with adiponectin”.

With “15 (ILLPLRIN; Adiponectin binding peptide) [compound 15]”, in the test with adiponectin [1], the “absorbance at 450 nm” value is “significantly higher in absorbance” and the bindability with adiponectin result was “had the bindability with adiponectin”.

On to “18 (MGSFVPY; Adiponectin binding peptide) [compound 18]”, for which, in the test with adiponectin [2], the bindability with adiponectin entry is “had the bindability with adiponectin”; the “fluorescent intensity in the synthesis spot” value is “close to those of the peptides having the amino-acid sequences represented by SEQ ID NOs: 8 and 9”.

As for “19 (KFATPKHR; Adiponectin binding peptide) [compound 19]”, in the test with adiponectin [2], the bindability with adiponectin result was “had the bindability with adiponectin”; the “fluorescent intensity in the synthesis spot” value was “close to those of the peptides having the amino-acid sequences represented by SEQ ID NOs: 8 and 9”.
